Values joined by “and” are separate entries in the source; they are usually repeats but may differ in a detail not shown here. Equal values may be shown once. Where a SMILES comes first, the peptide text is derived from it. Bridges are numbered along the chain shown (N, C = ends). The star is where a group is joined. DOTA = O=C(O)CN1CCN(CC(=O)O)CCN(CC(=O)*)CCN(CC(=O)O)CC1
Tests used:
ADAMTS4 = molecular target: T1, ADAMTS4 (Homo sapiens, UniProt O75173); assay: Relaxivity at 3 Tesla, unbound and bound to ADAMTS4; assay type: physicochemical; conditions: 3 T, 1% BSA in PBS
T1 construct: purchased R&D systems 4307-AD-020
T1 sequence (O75173 213-837): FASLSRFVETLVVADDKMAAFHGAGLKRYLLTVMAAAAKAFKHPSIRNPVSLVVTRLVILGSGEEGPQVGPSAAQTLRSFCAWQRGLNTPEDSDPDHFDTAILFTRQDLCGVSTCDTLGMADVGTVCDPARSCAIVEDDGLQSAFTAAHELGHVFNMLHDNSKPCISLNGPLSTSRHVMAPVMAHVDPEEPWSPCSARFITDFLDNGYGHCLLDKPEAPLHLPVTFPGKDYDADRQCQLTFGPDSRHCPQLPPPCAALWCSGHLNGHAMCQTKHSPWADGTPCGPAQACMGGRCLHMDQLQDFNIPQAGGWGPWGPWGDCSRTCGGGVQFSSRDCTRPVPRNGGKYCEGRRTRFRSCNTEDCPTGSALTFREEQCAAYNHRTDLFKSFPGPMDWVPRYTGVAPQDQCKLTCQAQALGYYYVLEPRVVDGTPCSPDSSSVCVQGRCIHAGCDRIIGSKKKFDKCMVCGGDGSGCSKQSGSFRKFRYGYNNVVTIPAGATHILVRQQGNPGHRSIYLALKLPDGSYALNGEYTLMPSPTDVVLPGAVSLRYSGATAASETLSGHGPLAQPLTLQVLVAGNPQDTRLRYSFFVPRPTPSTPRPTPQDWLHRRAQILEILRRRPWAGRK
Method: One milliliter of a 1 µg/ml solution of the ADAMTS4-specific probe in 1% BSA in PBS buffer was measured in a reaction tube using a 3 T MRI scanner. 1% BSA in PBS buffer was used as a negative control. After each scan, 50 µl of a 0.2 µg/µl solution of ADAMTS4 (R&D systems, 4307-AD-020) was added to one reaction tube, while 50 µl of the 1% BSA in PBS buffer was added to the second reaction tube. Tubes were shaken and measured again. The following ADAMTS4 concentrations were measured: 0 µg, 10 µg, 20 µg, 30 µg, 40 µg, 50 µg, and 60 µg.

[1] = molecular target: T2, ADAMTS4 in the aneurysmal aortic wall of ApoE−/− mice (Mus musculus, UniProt Q8BNJ2); assay: In vivo competition experiment
T2 construct: from tissue
T2 sequence (Q8BNJ2 209-833): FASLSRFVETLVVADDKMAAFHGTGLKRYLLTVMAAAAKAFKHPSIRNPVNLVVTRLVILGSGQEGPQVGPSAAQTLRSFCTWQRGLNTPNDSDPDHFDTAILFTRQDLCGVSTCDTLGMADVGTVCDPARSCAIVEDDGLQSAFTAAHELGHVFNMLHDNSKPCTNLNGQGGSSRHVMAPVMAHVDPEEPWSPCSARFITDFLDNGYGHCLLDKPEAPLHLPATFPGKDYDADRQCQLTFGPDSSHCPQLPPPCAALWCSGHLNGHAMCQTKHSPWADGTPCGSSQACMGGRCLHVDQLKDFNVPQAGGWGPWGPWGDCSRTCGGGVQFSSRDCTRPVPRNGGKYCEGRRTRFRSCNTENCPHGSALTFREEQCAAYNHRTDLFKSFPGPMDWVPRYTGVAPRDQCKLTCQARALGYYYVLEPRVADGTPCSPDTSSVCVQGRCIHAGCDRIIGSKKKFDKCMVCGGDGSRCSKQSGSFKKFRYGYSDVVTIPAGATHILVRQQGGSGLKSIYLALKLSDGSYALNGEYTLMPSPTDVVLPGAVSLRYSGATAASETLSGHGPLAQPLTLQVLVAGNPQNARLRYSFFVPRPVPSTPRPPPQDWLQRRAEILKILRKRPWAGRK
Method: An in vivo competition experiment was performed in 3 ApoE^−/− mice (n = 3) 4 weeks after AAA induction. On day 1, MR imaging was performed prior to and following the intravenous administration of the ADAMTS4-specific probe. On day 2, MRI was performed prior to and after the injection of a 7-fold higher dose of the non-paramagnetic europium-labeled ADAMTS4-specific probe. Then, a clinical dose of the ADAMST4 specific probe (0.13 mmol/kg) was administered with the following imaging after 20 min.
Analysis of resulting MR images was performed using OsiriX (version 7.1, OsiriX Foundation, Bernex, Switzerland). All morphometric measurements were conducted on high-resolution MRI images. In order to assess the signal intensities, regions of interest (ROIs) were measured as areas of signal enhancement, which were co-localized with areas of aneurysmal-aortic tissue. For these areas, the CNR was calculated using the following formula: CNR = (Combined vessel-wall and aneurysmal-aortic-tissue-signal − blood-signal)/standard-deviation-signal (noise). The signal of noise was defined as the standard deviation in pixel intensity from an ROI placed in the background air anterior to the aorta.

[2] = Gadolinium in the aortic wall by ICP-MS; assay type: in vivo, mouse; conditions: ICP-MS of digested aorta after probe administration; individual mice, n = 7
Method: The samples were dissolved with 12 ml ultrapure water.

Structure (SMILES): N=C(N)NCCC[C@@H]1NC(=O)[C@H](CCCNC(=N)N)NC(=O)[C@H](CO)NC(=O)[C@@H](N)CSSC[C@@H](C(=O)N[C@@H](CO)C(=O)NCC(=O)NCC(=O)N[C@@H](CO)C(=O)NCC(=O)NCC(=O)N[C@@H](CCCCNC(=O)CN2CCN(CC(=O)O)CCN(CC(=O)O)CCN(CC(=O)O)CC2)C(=O)NCC(N)=O)NC(=O)CNC1=O (Gd complex, metal not drawn) [ADAMTS4-specific probe] (H-CSRRGCSGGSGGK(DOTA)G-NH2; disulfide 1-6)
- longitudinal relaxivity, unbound probe (ADAMTS4): 3.4 ± 0.19 mM⁻¹ s⁻¹
- longitudinal relaxivity, bound probe (ADAMTS4; ADAMTS4 added): 6.13 ± 0.73 mM⁻¹ s⁻¹
- CNR d1 post, individual animals ([1]; day 1, Gd-labeled probe alone): 10.05 and 8.83 and 9.84
- CNR d2 post, individual animals ([1]; day 2, after 7-fold dose of Eu-labeled probe followed by Gd-labeled probe 0.13 mmol/kg): 5.81 and 4.92 and 5.19
- Gd amount in the aortic wall [2]: 38.015 ng/kg and 35.695 ng/kg and 62.7086 ng/kg and 32.3631 ng/kg and 8.118 ng/kg and 16.4033 ng/kg and 11.8689 ng/kg

Source: PMC9126943, “ADAMTS4-specific MR probe to assess aortic aneurysms in vivo using synthetic peptide libraries” (Nature Communications, 2022)
